Reference: publication PMC8103107, “Myeloid‐resident neuropilin‐1 promotes choroidal neovascularization while mitigating inflammation” (EMBO Molecular Medicine, 2021)

T1: recombinant NRP1-derived trap consisting of the extracellular domain of NRP1 (UniProt O14786 22-856)
T1 construct: also called soluble NRP1; soluble receptor Neuropilin-1; source: purified recombinant
T1 sequence (looked up): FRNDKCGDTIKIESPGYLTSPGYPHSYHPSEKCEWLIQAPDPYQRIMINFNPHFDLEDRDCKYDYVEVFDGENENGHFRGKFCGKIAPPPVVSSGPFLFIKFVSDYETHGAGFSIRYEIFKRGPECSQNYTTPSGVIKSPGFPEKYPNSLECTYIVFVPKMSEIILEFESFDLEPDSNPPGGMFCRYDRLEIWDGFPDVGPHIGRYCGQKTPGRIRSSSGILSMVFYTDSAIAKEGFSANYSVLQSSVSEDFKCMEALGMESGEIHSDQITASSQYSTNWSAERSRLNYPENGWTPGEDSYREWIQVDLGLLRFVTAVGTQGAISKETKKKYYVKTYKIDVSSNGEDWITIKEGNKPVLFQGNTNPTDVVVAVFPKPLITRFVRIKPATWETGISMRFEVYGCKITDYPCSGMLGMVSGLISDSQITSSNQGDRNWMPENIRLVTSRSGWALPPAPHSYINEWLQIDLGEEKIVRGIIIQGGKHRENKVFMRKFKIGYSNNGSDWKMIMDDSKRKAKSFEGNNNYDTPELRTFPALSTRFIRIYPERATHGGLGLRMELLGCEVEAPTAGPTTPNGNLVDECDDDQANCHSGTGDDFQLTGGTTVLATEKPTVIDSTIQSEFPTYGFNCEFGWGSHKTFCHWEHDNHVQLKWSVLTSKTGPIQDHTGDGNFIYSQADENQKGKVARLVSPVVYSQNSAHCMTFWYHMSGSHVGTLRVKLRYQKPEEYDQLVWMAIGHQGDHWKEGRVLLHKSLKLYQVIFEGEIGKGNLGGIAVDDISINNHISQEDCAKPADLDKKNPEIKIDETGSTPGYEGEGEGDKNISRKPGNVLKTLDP


Target: T1, recombinant NRP1-derived trap …
Assay: SPR; Biacore T200; trap immobilised by amine coupling on a CM4 chip (100-150 RU); SEMA3A or VEGF-A injected at 12.5-100 nM, 40 ul/min, PBS with 0.025% (v/v) Tween-20; global fit to a one-site Langmuir binding model
Conditions: both partners purified

| Binder | Kd |
| --- | --- |
| Semaphorin 3A (ligand, UniProt Q14563 21-771, looked up, Semaphorin 3A (SEMA3A), injected as analyte in SPR; also called SEMA3A; Sema3A) NYQNGKNNVPRLKLSYKEMLESNNVITFNGLANSSSYHTFLLDEERSRLYVGAKDHIFSFDLVNIKDFQKIVWPVSYTRRDECKWAGKDILKECANFIKVLKAYNQTHLYACGTGAFHPICTYIEIGHHPEDNIFKLENSHFENGRGKSPYDPKLLTASLLIDGELYSGTAADFMGRDFAIFRTLGHHHPIRTEQHDSRWLNDPKFISAHLISESDNPEDDKVYFFFRENAIDGEHSGKATHARIGQICKNDFGGHRSLVNKWTTFLKARLICSVPGPNGIDTHFDELQDVFLMNFKDPKNPVVYGVFTTSSNIFKGSAVCMYSMSDVRRVFLGPYAHRDGPNYQWVPYQGRVPYPRPGTCPSKTFGGFDSTKDLPDDVITFARSHPAMYNPVFPMNNRPIVIKTDVNYQFTQIVVDRVDAEDGQYDVMFIGTDVGTVLKVVSIPKETWYDLEEVLLEEMTVFREPTAISAMELSTKQQQLYIGSTAGVAQLPLHRCDIYGKACAECCLARDPYCAWDGSACSRYFPTAKRRTRRQDIRNGDPLTHCSDLHHDNHHGHSPEERIIYGVENSSTFLECSPKSQRALVYWQFQRRNEERKEEIRVDDHIIRTDQGLLLRSLQQKDSGNYLCHAVEHGFIQTLLKVTLEVIDTEHLEELLHKDDDGDGSKTKEMSNSMTPSQKVWYRDFMQLINHPNLNTMDEFCEQVWKRDRKQRRQRPGHTPGNSNKWKHLQENKKGRNRRTHEFERAPRSV | 0.67 nM |
| vascular endothelial growth factor A (ligand, Assumed to be VEGF165, the customary recombinant product, because the isoform is not printed. Mature residues 1-165 equal entry residues 207-395 with the exon 6a region 321-345 replaced by the …) APMAEGGGQNHHEVVKFMDVYQRSYCHPIETLVDIFQEYPDEIEYIFKPSCVPLMRCGGCCNDEGLECVPTEESNITMQIMRIKPHQGQHIGEMSFLQHNKCECRPKKDRARQENPCGPCSERRKHLFVQDPQTCKCSCKNTDSRCKARQLELNERTCRCDKPRR | 4.32 nM |
